{
  "source": "the supplement of paper PMC11316812",
  "key": {"hTERT-HMEC": {"tested_on": "hTERT-HMEC", "test": "percentage of EdU-negative (G0-arrested) nuclei per well, 72 h; higher = more G0 arrest", "conditions": "reference: sequence is the full UniProt precursor, the tested protein was the secreted form or ectodomain"}, "MCF7": {"tested_on": "MCF7", "test": "percentage of EdU-negative (G0-arrested) nuclei per well, 72 h; higher = more G0 arrest", "conditions": "reference: sequence is the full UniProt precursor, the tested protein was the secreted form or ectodomain"}, "[1]": {"conditions": "protein concentration 0.00625 µM"}, "[2]": {"conditions": "protein concentration 0.0625 µM"}, "[3]": {"conditions": "protein concentration 0.0225 µM"}, "[4]": {"conditions": "protein concentration 0.0135 µM"}, "[5]": {"conditions": "protein concentration 0.00575 µM"}, "[6]": {"conditions": "protein concentration 0.0575 µM"}},
  "note": "± gives the standard deviation of the averaged measurements.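 Further: secreted proteins added to cultured cells, EdU pulse at the end, nuclei found by Hoechst imaging, EdU status from nuclear versus surrounding ring intensity ratio, PBS as neutral control.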",
  "data": [
    {"substance": "Q9BXP8", "values": [
      {"measurement": "percentage of EdU-negative", "setting": "hTERT-HMEC; [1]", "result": "5.11 ± 0.6", "unit": "%"},
      {"measurement": "percentage of EdU-negative", "setting": "hTERT-HMEC; [2]", "result": "6.47 ± 0.67", "unit": "%"},
      {"measurement": "percentage of EdU-negative", "setting": "MCF7; [1]", "result": "26.6 ± 1.2", "unit": "%"},
      {"measurement": "percentage of EdU-negative", "setting": "MCF7; [2]", "result": "28.7 ± 1.2", "unit": "%"}
    ]},
    {"substance": "MTPILTVLICLGLSLGPRTHVQAGHLPKPTLWAEPGSVIIQGSPVTLRCQGSLQAEEYHLYRENKSASWVRRIQEPGKNGQFPIPSITWEHAGRYHCQYYSHNHSSEYSDPLELVVTGAYSKPTLSALPSPVVTSGGNVTLQCVSQVAFDGFILCKEGEDEHPQRLNSHSHARGWSWAIFSVGPVSPSRRWSYRCYAYDSNSPYVWSLPSDLLELLVPGVSKKPSLSVQPGPMVAPGESLTLQCVSDVGYDRFVLYKEGERDFLQRPGWQPQAGLSQANFTLGPVSPSHGGQYRCYSAHNLSSEWSAPSDPLDILITGQFYDRPSLSVQPVPTVAPGKNVTLLCQSRGQFHTFLLTKEGAGHPPLHLRSEHQAQQNQAEFRMGPVTSAHVGTYRCYSSLSSNPYLLSLPSDPLELVVSEAAETLSPSQNKTDSTTTSLGQHPQDYTVENLIRMGVAGLVLVVLGILLFEAQHSQRSLQDAAGR [Q8N149]", "values": [
      {"measurement": "percentage of EdU-negative", "setting": "hTERT-HMEC; [3]", "result": "5.36 ± 0.5", "unit": "%"},
      {"measurement": "percentage of EdU-negative", "setting": "hTERT-HMEC; protein concentration 0.225 µM", "result": "4.88 ± 0.47", "unit": "%"},
      {"measurement": "percentage of EdU-negative", "setting": "MCF7; [3]", "result": "23.9 ± 0.99", "unit": "%"},
      {"measurement": "percentage of EdU-negative", "setting": "MCF7; protein concentration 0.225 µM", "result": "26.3 ± 3.1", "unit": "%"}
    ]},
    {"substance": "MLRFYLFISLLCLSRSDAEETCPSFTRLSFHSAVVGTGLNVRLMLYTRKNLTCAQTINSSAFGNLNVTKKTTFIVHGFRPTGSPPVWMDDLVKGLLSVEDMNVVVVDWNRGATTLIYTHASSKTRKVAMVLKEFIDQMLAEGASLDDIYMIGVSLGAHISGFVGEMYDGWLGRITGLDPAGPLFNGKPHQDRLDPSDAQFVDVIHSDTDALGYKEPLGNIDFYPNGGLDQPGCPKTILGGFQYFKCDHQRSVYLYLSSLRESCTITAYPCDSYQDYRNGKCVSCGTSQKESCPLLGYYADNWKDHLRGKDPPMTKAFFDTAEESPFCMYHYFVDIITWNKNVRRGDITIKLRDKAGNTTESKINHEPTTFQKYHQVSLLARFNQDLDKVAAISLMFSTGSLIGPRYKLRILRMKLRSLAHPERPQLCRYDLVLMENVETVFQPILCPELQL [Q8WWY8]", "values": [
      {"measurement": "percentage of EdU-negative", "setting": "hTERT-HMEC; [4]", "result": "5.39 ± 1.9", "unit": "%"},
      {"measurement": "percentage of EdU-negative", "setting": "hTERT-HMEC; protein concentration 0.135 µM", "result": "14.6 ± 3", "unit": "%"},
      {"measurement": "percentage of EdU-negative", "setting": "MCF7; [4]", "result": "25.5 ± 2.4", "unit": "%"},
      {"measurement": "percentage of EdU-negative", "setting": "MCF7; protein concentration 0.135 µM", "result": "29.4 ± 2.3", "unit": "%"}
    ]},
    {"substance": "MSLVLLSLAALCRSAVPREPTVQCGSETGPSPEWMLQHDLIPGDLRDLRVEPVTTSVATGDYSILMNVSWVLRADASIRLLKATKICVTGKSNFQSYSCVRCNYTEAFQTQTRPSGGKWTFSYIGFPVELNTVYFIGAHNIPNANMNEDGPSMSVNFTSPGCLDHIMKYKKKCVKAGSLWDPNITACKKNEETVEVNFTTTPLGNRYMALIQHSTIIGFSQVFEPHQKKQTRASVVIPVTGDSEGATVQLTPYFPTCGSDCIRHKGTVVLCPQTGVPFPLDNNKSKPGGWLPLLLLSLLVATWVLVAGIYLMWRHERIKKTSFSTTTLLPPIKVLVVYPSEICFHHTICYFTEFLQNHCRSEVILEKWQKKKIAEMGPVQWLATQKKAADKVVFLLSNDVNSVCDGTCGKSEGSPSENSQDLFPLAFNLFCSDLRSQIHLHKYVVVYFREIDTKDDYNALSVCPKYHLMKDATAFCAELLHVKQQVSAGKRSQACHDGCCSL [Q9NRM6]", "values": [
      {"measurement": "percentage of EdU-negative", "setting": "hTERT-HMEC; [3]", "result": "4.78 ± 0.46", "unit": "%"},
      {"measurement": "percentage of EdU-negative", "setting": "hTERT-HMEC; protein concentration 0.225 µM", "result": "5.29 ± 0.1", "unit": "%"},
      {"measurement": "percentage of EdU-negative", "setting": "MCF7; [3]", "result": "25.3 ± 1.3", "unit": "%"},
      {"measurement": "percentage of EdU-negative", "setting": "MCF7; protein concentration 0.225 µM", "result": "26.76 ± 0.21", "unit": "%"}
    ]},
    {"substance": "MMLRVLVGAVLPAMLLAAPPPINKLALFPDKSAWCEAKNITQIVGHSGCEAKSIQNRACLGQCFSYSVPNTFPQSTESLVHCDSCMPAQSMWEIVTLECPGHEEVPRVDKLVEKILHCSCQACGKEPSHEGLSVYVQGEDGPGSQPGTHPHPHPHPHPGGQTPEPEDPPGAPHTEEEGAED", "values": [
      {"measurement": "percentage of EdU-negative", "setting": "hTERT-HMEC; [3]", "result": "5.79 ± 0.84", "unit": "%"},
      {"measurement": "percentage of EdU-negative", "setting": "hTERT-HMEC; protein concentration 0.225 µM", "result": "5.88 ± 0.42", "unit": "%"},
      {"measurement": "percentage of EdU-negative", "setting": "MCF7; [3]", "result": "25.6 ± 1.4", "unit": "%"},
      {"measurement": "percentage of EdU-negative", "setting": "MCF7; protein concentration 0.225 µM", "result": "24.7 ± 0.79", "unit": "%"}
    ]},
    {"substance": "P0C0L4", "values": [
      {"measurement": "percentage of EdU-negative", "setting": "hTERT-HMEC; [5]", "result": "4.91 ± 0.16", "unit": "%"},
      {"measurement": "percentage of EdU-negative", "setting": "hTERT-HMEC; [6]", "result": "5.66 ± 0.38", "unit": "%"},
      {"measurement": "percentage of EdU-negative", "setting": "MCF7; [5]", "result": "24.22 ± 0.12", "unit": "%"},
      {"measurement": "percentage of EdU-negative", "setting": "MCF7; [6]", "result": "26.1 ± 0.47", "unit": "%"}
    ]}
  ]
}
